Assay results taken from patent publication US20180326058A1 (Chugai, published 2018).
Changes are numbered by the printed parent chain.

T1: mouse FcgRIV (mouse, UniProt A0A0B4J1G0 21-203)
T1 construct: Used as the soluble analyte in Biacore; also called mFcgRIV
T1 sequence: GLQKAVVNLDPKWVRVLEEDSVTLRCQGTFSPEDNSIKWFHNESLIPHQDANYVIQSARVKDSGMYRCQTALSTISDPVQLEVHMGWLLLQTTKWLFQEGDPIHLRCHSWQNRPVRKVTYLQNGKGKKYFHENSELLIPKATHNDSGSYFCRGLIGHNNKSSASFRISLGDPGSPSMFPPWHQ

T2: mouse FcgRI (mouse, UniProt P26151 25-297)
T2 construct: Used as the soluble analyte in Biacore; also called mFcgRI
T2 sequence (looked up): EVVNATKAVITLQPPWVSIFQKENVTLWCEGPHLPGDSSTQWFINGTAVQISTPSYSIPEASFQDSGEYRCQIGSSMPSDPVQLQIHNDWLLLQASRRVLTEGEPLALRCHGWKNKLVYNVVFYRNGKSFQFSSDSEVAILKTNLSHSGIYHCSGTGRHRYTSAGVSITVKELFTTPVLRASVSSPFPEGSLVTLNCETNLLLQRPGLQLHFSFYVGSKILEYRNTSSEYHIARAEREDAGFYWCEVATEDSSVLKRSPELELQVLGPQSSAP

T3: mouse FcgRII (mouse, UniProt P08101 30-210)
T3 construct: Used as the soluble analyte in Biacore; also called mFcgRII
T3 sequence (looked up): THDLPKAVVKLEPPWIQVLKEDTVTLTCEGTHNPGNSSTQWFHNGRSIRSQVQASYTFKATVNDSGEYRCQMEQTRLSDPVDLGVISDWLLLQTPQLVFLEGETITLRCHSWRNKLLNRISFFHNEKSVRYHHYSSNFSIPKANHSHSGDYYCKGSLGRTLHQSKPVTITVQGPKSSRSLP

T4: mouse FcgRIII (mouse, UniProt P08508 31-215)
T4 construct: Used as the soluble analyte in Biacore; also called mFcgRIII
T4 sequence (looked up): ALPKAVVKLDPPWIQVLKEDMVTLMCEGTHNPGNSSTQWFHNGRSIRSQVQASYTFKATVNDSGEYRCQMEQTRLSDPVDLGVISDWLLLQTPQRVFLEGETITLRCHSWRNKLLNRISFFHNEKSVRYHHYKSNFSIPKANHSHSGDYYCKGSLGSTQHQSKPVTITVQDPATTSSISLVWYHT

T5: mouse CD3 (mouse)
T5 chain: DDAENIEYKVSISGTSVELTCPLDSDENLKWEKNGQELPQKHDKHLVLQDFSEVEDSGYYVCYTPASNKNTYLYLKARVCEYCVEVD

B1: control antibody hUH02hUL01-mIgG2a (antibody)
heavy: QVQLQESGPGLVKPSETLSLTCTVSGYSISSGYGWNWIRQPPGKGLEWIGFIYYEGSTYYNPSIKSRISITRDTSKNQFFLQVNSVTTEDTATYYCARQTGYFDYWGQGTLVTVSSAKTTAPSVYPLAPVCGDTTGSSVTLGCLVKGYFPEPVTLTWNSGSLSSGVHTFPAVLQSDLYTLSSSVTVTSSTWPSQSITCNVAHPASSTKVDKKIEPRGPTIKPCPPCKCPAPNLLGGPSVFIFPPKIKDVLMISLSPIVTCVVVDVSEDDPDVQISWFVNNVEVHTAQTQTHREDYNSTLRVVSALPIQHQDWMSGKEFKCKVNNKDLPAPIERTISKPKGSVRAPQVYVLPPPEEEMTKKQVTLTCMVTDFMPEDIYVEWTNNGKTELNYKNTEPVLDSDGSYFMYSKLRVEKKNWVERNSYSCSVVHEGLHNHHTTKSFSRTPGK
light: DIVMTQSPDSLAVSLGERATINCKSSQSLFNSNAKTNYLNWYQQKPGQPPKLLIYYASTRHTGVPDRFSGSGSGTDFTLTISSLQAEDVAVYYCQQWYDYPYTFGAGTKVEIKRADAAPTVSIFPPSSEQLTSGGASVVCFLNNFYPKDINVKWKIDGSERQNGVLNSWTDQDSKDSTYSMSSTLTLTKDEYERHNSYTCEATHKTSTSPIVKSFNRNEC
notes: Same variable regions as hUH02hUL01-mFa55, with an unmodified mouse IgG2a constant region
B2: anti-mouse CTLA4 antibody hUH02hUL01-mFa55 (antibody, mouse IgG2a, kappa)
heavy: B1 heavy with S238D
light: B1 light
notes: Mouse IgG2a/kappa format; also called hUH02UL01-mFa55; ADCC-enhanced antibody
B3: anti-mouse CTLA4/anti-mouse CD3 bispecific antibody (hUH02UL01/2C11-F760) (bispecific antibody, human IgG1, kappa, N297A)
heavy 1: QVQLQESGPGLVKPSETLSLTCTVSGYSISSGYGWNWIRQPPGKGLEWIGFIYYEGSTYYNPSIKSRISITRDTSKNQFFLQVNSVTTEDTATYYCARQTGYFDYWGQGTLVTVSSASTKGPSVFPLAPSSKSTSGGTAALGCLVKDYFPEPVTVSWNSGALTSGVHTFPAVLQSSGLYSLSSVVTVPSSSLGTQTYICNVNHKPSNTKVDKKVEPKSCDKTHTCPPCPAPELRGGPKVFLFPPKPKDTLMISRTPEVTCVVVDVSHEDPEVKFNWYVDGVEVHNAKTKPREEQYASTYRVVSVLTVLHQDWLNGKEYKCKVSNKALPAPIEKTISKAKGQPREPQVYTLPPSRDELTKNQVSLTCLVKGFYPSDIAVEWESNGQPENNYKTTPPYLDSDGSFFLYSKLTVDKSRWQQGNVFSCSVMHEALHNHYTQESLSLSP
light 1: not shown
heavy 2: EVQLVESGGGLVQPGKSLKLSCEASGFTFSGYGMHWVRQAPGRGLESVAYITSSSINIKYADAVKGRFTVSRDNAKNLLFLQMNILKSEDTAMYYCARFDWDKNYWGQGTMVTVSSASTKGPSVFPLAPSSKSTSGGTAALGCLVKDYFPEPVTVSWNSGALTSGVHTFPAVLQSSGLYSLSSVVTVPSSSLGTQTYICNVNHKPSNTKVDKKVEPKSCDKTHTCPPCPAPELRGGPKVFLFPPKPKDTLMISRTPEVTCVVVDVSHEDPEVKFNWYVDGVEVHNAKTKPREEQYASTYRVVSVLTVLHQDWLNGKEYKCKVSNKALPAPIEKTISKAKGQPREPQVYTLPPSRKELTKNQVSLTCLVKGFYPSDIAVEWESNGQPENNYKTTPPYLDSDGSFFLYSKLTVDKSRWQQGNVFSCSVMHEALHNHYTQKSLSLSP
light 2: DIQMTQSPSSLPASLGDRVTINCQASQDISNYLNWYQQKPGKAPKLLIYYTNKLADGVPSRFSGSGSGRDSSFTISSLESEDIGSYYCQQYYNYPWTFGPGTKLEIKRTVAAPSVFIFPPSDEQLKSGTASVVCLLNNFYPREAKVQWKVDNALQSGNSQESVTEQDSKDSTYSLSSTLTLSKADYEKHKVYACEVTHQGLSSPVTKSFNRGEC
notes: also called T cell-redirecting antibody

Columns and labels:
mouse FcgRIV = target: T1, mouse FcgRIV; assay: SPR Biacore T200, antibody captured on Protein A/G, FcgR as analyte, 25 C
Description: (§1) Anti-mouse CTLA4 antibody hUH02hUL01-mFa55 and control antibody hUH02hUL01-mIgG2a (the heavy chain variable region UH02 is SEQ ID NO: 28, the light chain variable region UL01 is SEQ ID NO: 29, the heavy chain constant region mIgG2a is SEQ ID NO: 32, and the light chain constant region mk1 is SEQ ID NO: 31) purified and prepared by the method of Reference Example 2-1 were analyzed for their antigen-antibody reactions with various mouse FcgRs (mFcgRI, II, III, and IV) using Biacore T200 (GE Healthcare). The running buffer used was 20 mmol/L ACES, 150 mmol/L NaCl, 0.05% (w/v) Tween20 at pH7.4, and measurements were taken at 25° C. Protein A/G was immobilized onto a Sensor Chip CM7 by amine coupling. hUH02hUL01-mFa55 was captured onto the sensorchip, and then FcgR was allowed to interact as an analyte for 120 seconds, and change in the bound amount was observed. The running buffer was used for dilution of hUH02hUL01-mFa55. The measurement results were analyzed by curve fitting using the Biacore T200 Evaluation Software (GE Healthcare) to calculate the association rate constants ka (1/Ms) and the dissociation rate constants kd (l/s). From those values, the dissociation constants KD (M) were determined.

mouse FcgRI = target: T2, mouse FcgRI; assay: as above
Description: as §1

mouse FcgRII = target: T3, mouse FcgRII; assay: as above
Description: as §1

mouse FcgRIII = target: T4, mouse FcgRIII; assay: as above
Description: as §1

mouse CTLA4 = target: T6, mouse CTLA4 (mouse, UniProt P09793 36-161, limits assumed); assay: SPR Biacore T200, bispecific antibody captured on Protein A/G, antigen as analyte, 37 C
T6 construct: Soluble antigen used as the analyte in Biacore; also called mCTLA4
Description: (§2) Anti-mouse CTLA4/anti-mouse CD3 bispecific antibodies (hUH02UL01/2C11-F760) purified and prepared by the method of Reference Example 3-1 were analyzed for their antigen-antibody reactions with each antigen (mCTLA4 and mCD3) using Biacore T200 (GE Healthcare). The running buffer used was HBS-EP+ at pH7.4, and measurements were taken at 37° C. Protein A/G was immobilized onto a Sensor Chip CM4 by amine coupling. hUH02UL01/2C11-F760 was captured onto the sensor chip, and then the antigen (mouse CTLA4 or mouse CD3) was allowed to interact as an analyte (for 120 seconds for mouse CTLA4 and for 90 seconds for mouse CD3), and changes in the bound amount were observed. The running buffer was used for dilution of hUH02UL01/2C11-F760. The measurement results were analyzed by curve fitting using the Biacore T200 Evaluation Software (GE Healthcare) to calculate the association rate constants ka (1/Ms) and the dissociation rate constants kd (l/s). From those values, the dissociation constants KD (M) were determined.

mouse CD3 = target: T5, mouse CD3; assay: as above
Description: as §2

Binder	Kd (mouse FcgRIV)	koff (mouse FcgRIV)	kon (mouse FcgRIV)	Kd (mouse FcgRI)	koff (mouse FcgRI)	kon (mouse FcgRI)	Kd (mouse FcgRII)	koff (mouse FcgRII)	kon (mouse FcgRII)	Kd (mouse FcgRIII)	koff (mouse FcgRIII)	kon (mouse FcgRIII)	Kd (mouse CTLA4)	koff (mouse CTLA4)	kon (mouse CTLA4)	Kd (mouse CD3)	koff (mouse CD3)	kon (mouse CD3)
B1	13 nM	0.016 s⁻¹	1.2e+06 M⁻¹ s⁻¹	6.1 nM	0.0047 s⁻¹	780000 M⁻¹ s⁻¹	780 nM	1.1 s⁻¹	1.3e+06 M⁻¹ s⁻¹	250 nM	0.51 s⁻¹	2e+06 M⁻¹ s⁻¹	–	–	–	–	–	–
B2	1.9 nM	0.0028 s⁻¹	1.5e+06 M⁻¹ s⁻¹	2.5 nM	0.0031 s⁻¹	1.2e+06 M⁻¹ s⁻¹	370 nM	0.76 s⁻¹	2.1e+06 M⁻¹ s⁻¹	260 nM	0.62 s⁻¹	2.4e+06 M⁻¹ s⁻¹	–	–	–	–	–	–
B3	–	–	–	–	–	–	–	–	–	–	–	–	1.23 nM	0.00053 s⁻¹	430000 M⁻¹ s⁻¹	1160 nM	0.0712 s⁻¹	61600 M⁻¹ s⁻¹
